In assay [1] the target is p185, the human HER-2/neu (c-erbB2) proto-oncogene product (human) (UniProt P04626). The assay is described as follows: Scatchard analysis on SK-Br-3 cells.
Assay [2] addresses H520C9sFv-hIL-2 fusion protein (human) (UniProt P60568). The assay is described as follows: cell-based or functional assay.
In assay [3] the target is recombinant human IL-2 (human) (UniProt P60568). Put plainly: cell-based or functional assay.

The text below walks through data of US20020041865A1.

B1: murine monoclonal antibody 520C9 (antibody, from another filing, V domains shown)
VH: EIQLVQSGPELKKPGETVKISCKASGYTFANYGMNWMKQAPGKGLKWMGWINTYTGQSTYADDFKERFAFSLETSATTAHLQINNLRNEDSATYFCARRFGFAYWGQGTLVSVSA
VL: DIQMTQSPSSLSASLGERVSLTCRASQDIGNSLTWLQQEPDGTIKRLIYATSSLDSGVPKRFSGSRSGSDYSLTISSLESEDFVVYYCLQYAIFPYTFGGGTNLEIK
B1 gave a Ka in assay [1] of 3.5e+08 M⁻¹.

B2: proteolytically cleaved Fab fragment of 520C9 (Fab, from another filing, V domains shown)
VH: B1 VH
VL: B1 VL
B2 returned a Ka in assay [1] of 6.7e+07 M⁻¹.

B3: mouse anti-human IL-2 mAb MAB202 (antibody, from another filing, V domains shown)
VH: DVRLVESGGGLVKPGGSLKLSCAAYGFTFSSYTLAWVRQTPEKRLEWVAAIDSSSYTYSPDTVRGRFTISRDNAKNTLYLQMSSLKSEDTAMYYCTRDSNWDALDYWGQGTSVIVSS
VL: DIVMTQSQKFMSTSVGDRVSVTCKASQNVGTNVGWYQQKPGQSPKALIYSASFRYSGVPDRFTGSGSGTDFSLTISNVKSEDLAEYFCQQYYTYPYTFGGGTKLEIK
Turning to B3, the 50% inhibition of [^3H]-thymidine incorporation in CTLL-2 cells (Neutralization Dose 50) for the same dose of H520C9sFv-hIL-2 in assay [2] stood at 0.128 µg/mL. Further, in assay [3], the 50% inhibition of [^3H]-thymidine incorporation in CTLL-2 cells (Neutralization Dose 50) for 2 ng/ml rhIL-2 was determined as 0.076 µg/mL.
